The labels stand for the following.
B1: Chaperone protein DnaJ (Escherichia coli (strain K12)), P08622 (parent)
chain: MAKQDYYEILGVSKTAEEREIRKAYKRLAMKYHPDRNQGDKEAEAKFKEIKEAYEVLTDSQKRAAYDQYGHAAFEQGGMGGGGFGGGADFSDIFGDVFGDIFGGGRGRQRAARGADLRYNMELTLEEAVRGVTKEIRIPTLEECDVCHGSGAKPGTQPQTCPTCHGSGQVQMRQGFFAVQQTCPHCQGRGTLIKDPCNKCHGHGRVERSKTLSVKIPAGVDTGDRIRLAGEGEAGEHGAPAGDLYVQVQVKQHPIFEREGNNLYCEVPINFAMAALGGEIEVPTLDGRVKLKVPGETQTGKLFRMRGKGVKSVRGGAQGDLLCRVVVETPVGLNERQKQLLQELQESFGGPTGEHNSPRSKSFFDGVKKFFDDLTR

This assay covers variants of B1. As to conditions: with dnak_ecoli dnaK.
In the case of K62A, the “effect of a mutation on the interaction” value was “decreasing interaction”.
To R63A belongs “decreasing interaction”.
To K62A;R63A belongs “decreasing interaction”.

Values taken from IntAct's records for PubMed 10521435.
